Measurements from US20210145944.

Assays:
Tau-441 (P301L) = Tau-441 (P301L) (UniProt P10636)
Tau-410 = Tau-410 (UniProt P10636)
p-Tau-441 = p-Tau-441 (UniProt P10636)
α-synuclein = α-synuclein (UniProt P37840)
Boc-QAR-AMC (ES014) = system: T1, Boc-QAR-AMC (ES014)
T1 sequence: QAR

Sequence of Tau-441 (P301L) (P10636 other isoform, or with tags, fused parts or gaps P301L): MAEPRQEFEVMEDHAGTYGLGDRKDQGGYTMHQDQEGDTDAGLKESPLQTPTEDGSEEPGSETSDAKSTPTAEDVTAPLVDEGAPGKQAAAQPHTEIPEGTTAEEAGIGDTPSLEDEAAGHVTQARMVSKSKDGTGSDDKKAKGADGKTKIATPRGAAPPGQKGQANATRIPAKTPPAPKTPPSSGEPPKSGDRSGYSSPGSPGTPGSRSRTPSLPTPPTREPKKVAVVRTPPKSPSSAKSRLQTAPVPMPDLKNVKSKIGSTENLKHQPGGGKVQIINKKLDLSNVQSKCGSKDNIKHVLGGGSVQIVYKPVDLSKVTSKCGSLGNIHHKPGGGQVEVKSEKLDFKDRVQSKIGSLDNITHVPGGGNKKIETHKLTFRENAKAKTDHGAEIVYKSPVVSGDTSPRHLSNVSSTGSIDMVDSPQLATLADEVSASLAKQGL
Sequence of p-Tau-441 (P10636 whole entry, looked up): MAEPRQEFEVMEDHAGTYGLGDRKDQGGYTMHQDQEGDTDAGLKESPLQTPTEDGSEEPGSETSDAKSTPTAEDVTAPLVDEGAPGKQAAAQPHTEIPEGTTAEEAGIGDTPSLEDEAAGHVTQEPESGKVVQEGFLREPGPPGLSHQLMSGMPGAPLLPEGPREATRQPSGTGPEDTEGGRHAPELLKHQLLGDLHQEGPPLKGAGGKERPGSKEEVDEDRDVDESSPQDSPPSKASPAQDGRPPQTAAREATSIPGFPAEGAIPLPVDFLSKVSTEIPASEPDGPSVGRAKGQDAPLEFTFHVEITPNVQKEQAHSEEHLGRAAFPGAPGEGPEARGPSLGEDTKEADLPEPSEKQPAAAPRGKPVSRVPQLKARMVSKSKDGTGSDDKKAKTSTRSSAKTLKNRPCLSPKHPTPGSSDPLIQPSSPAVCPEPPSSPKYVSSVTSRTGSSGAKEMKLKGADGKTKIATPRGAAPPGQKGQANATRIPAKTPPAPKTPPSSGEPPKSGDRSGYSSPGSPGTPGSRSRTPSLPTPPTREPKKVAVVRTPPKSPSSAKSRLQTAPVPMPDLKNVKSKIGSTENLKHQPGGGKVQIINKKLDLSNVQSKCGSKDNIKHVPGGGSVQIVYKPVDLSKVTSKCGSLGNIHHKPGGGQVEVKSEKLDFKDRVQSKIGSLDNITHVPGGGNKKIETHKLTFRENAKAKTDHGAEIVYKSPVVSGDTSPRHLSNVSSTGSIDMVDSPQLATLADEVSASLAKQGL
Sequence of Tau-410 (P10636 other isoform, or with tags, fused parts or gaps): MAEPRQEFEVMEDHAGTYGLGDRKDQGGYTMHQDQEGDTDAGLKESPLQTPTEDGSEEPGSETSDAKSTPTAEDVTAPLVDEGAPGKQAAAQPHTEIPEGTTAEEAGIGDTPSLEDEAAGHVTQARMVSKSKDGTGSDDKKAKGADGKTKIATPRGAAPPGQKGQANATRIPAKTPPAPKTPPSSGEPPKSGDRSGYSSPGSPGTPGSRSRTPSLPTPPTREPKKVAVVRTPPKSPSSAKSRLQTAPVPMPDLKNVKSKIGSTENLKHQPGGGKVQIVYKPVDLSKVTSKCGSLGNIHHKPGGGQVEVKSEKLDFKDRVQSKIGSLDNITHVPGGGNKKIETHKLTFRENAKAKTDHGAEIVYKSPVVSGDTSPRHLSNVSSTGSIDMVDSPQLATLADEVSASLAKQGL

Substance | casein digestion by resin-immobilized protease, RFU over time (Bodipy-labelled casein) | digestion on immobilized protease column, SDS-PAGE silver stain (FIG. 3A) (Tau-441 (P301L)) | loss of the Tau-441 (P301L) band on a silver-stained SDS-PAGE gel after incubation on the protease column (Tau-441 (P301L)) | % digestion at 0 min (Tau-410) [%] | % digestion at 1 min (Tau-410) [%] | % digestion at 5 min (Tau-410) [%] | % digestion at 60 min (Tau-410) [%] | digestion on immobilized protease column (FIGS. 3B, 3C, 3E, 3F and Table 2) (Tau-410) | % digestion at 0 min (p-Tau-441) [%] | % digestion at 1 min (p-Tau-441) [%] | % digestion at 5 min (p-Tau-441) [%] | % digestion at 60 min (p-Tau-441) [%] | digestion on immobilized protease column (FIGS. 3B, 3C, 3E, 3F and Table 2) (p-Tau-441) | casein digestion by resin-immobilized protease, RFU (520 nm) over time (Bodipy-labelled casein) | casein digestion by resin-immobilized protease, fluorescence (RFU) at 5 and 60 min (Bodipy-labelled casein) | casein digestion, fluorescence (RFU) of Bodipy-labelled casein after 1 h against protease concentration in solution (Bodipy-labelled casein) | casein-digestion activity, immobilized protease, fluorescence (Bodipy-labelled casein) | casein-digestion activity, immobilized protease, fluorescence (FIG. 2B) (Bodipy-labelled casein) | casein-digestion activity, protease in solution, fluorescence (Bodipy-labelled casein) | % digestion at 0 min (α-synuclein) [%] | also measured
Cathepsin D resin | no signal: the line falls from 0 to about -6000 RFU at 120 min, at or below the control resin (about 0) over the whole time range | – | – | – | – | – | – | – | – | – | – | – | – | – | – | – | – | – | – | – | –
elastase | rises from 0 to about 40000 RFU at 60 min and about 95000 RFU at 120 min; highest curve; control resin stays at about 0 | rapidly degraded | no band in the Elastase column lanes at 2, 10 and 20 min; the No protease column lanes show a strong band of equal strength at 2, 10 and 20 min, just above the second labelled marker | 0 | 28 | 50 | 81 | rapidly degraded | 0 | 33 | 93 | 100 | rapidly degraded | rises from 0 to about 107000 RFU at 60 min and about 150000 RFU at 120 min; Control-Resin (no protease) stays at or slightly below 0 | bar at 5 min about 1.5x10^7 RFU, bar at 60 min about 4.3x10^7 RFU; signal grows with time; no control bar drawn | near 0 at about 0.006 ug/ml, rises steadily to about 8.5x10^7 RFU at 100 ug/ml on a log axis; still rising, no upper plateau; highest of the three curves | exhibited casein-digestion activity at 5 minute and 60 minute incubation times | exhibited casein-digestion activity at 60 minute and 120 minute incubation times | exhibited casein-digestion activity having linear reaction kinetics up to approximately 6 µg/ml of each protease | 0 | % digestion at 1 min (α-synuclein): 71%; digestion on immobilized protease column (FIGS. 3D and 3G and Table 2) (α-synuclein): rapidly degraded
kallikrein-6 (KLK6) activated by lysyl endopeptidase | close to the control at 60 min (about 1000-2000 RFU), then about 19000 RFU at 120 min; control resin stays at about 0 | – | – | – | – | – | – | – | – | – | – | – | – | – | – | – | also exhibited casein-digestion activity at 120 minute incubation time | – | – | – | cleavage of fluorogenic peptide substrate, immobilized protease, 30, 60, 120 min (Boc-QAR-AMC (ES014)): exhibited protease activity at all time points tested; cleavage of the fluorogenic peptide substrate by resin-immobilized protease, AMC fluorescence (RFU) over time (Boc-QAR-AMC (ES014)): about 65000 RFU at 30 min, about 108000 at 60 min and about 215000 at 120 min, still rising; Control resin + ES014 stays at 0
trypsin | rises from 0 to about 24000 RFU at 60 min and about 76000 RFU at 120 min; control resin stays at about 0 | rapidly degraded | no band in the Trypsin column lanes at 2, 10 and 20 min; the No protease column lanes show a strong band of equal strength at 2, 10 and 20 min | 0 | 59 | 65 | 93 | rapidly degraded | 0 | 70 | 100 | 100 | rapidly degraded | rises from 0 to about 46000 RFU at 60 min and about 58000 RFU at 120 min; Control-Resin (no protease) stays at or slightly below 0 | bar at 5 min about 1.0x10^7 RFU, bar at 60 min about 2.2x10^7 RFU; lowest of the three groups; no control bar drawn | near 0 up to about 0.2 ug/ml, rises slowly to about 1.4x10^7 RFU at 100 ug/ml; no upper plateau; lowest of the three curves | exhibited casein-digestion activity at 5 minute and 60 minute incubation times | exhibited casein-digestion activity at 60 minute and 120 minute incubation times | exhibited casein-digestion activity having linear reaction kinetics up to approximately 6 µg/ml of each protease | 0 | % digestion at 1 min (α-synuclein): 90%; % digestion at 5 min (α-synuclein): 100%; % digestion at 60 min (α-synuclein): 100%; digestion on immobilized protease column (FIGS. 3D and 3G and Table 2) (α-synuclein): rapidly degraded
